The target in assay [1] is DdMyo7 short heavy meromyosin forced-dimer GFP (shHMM-FD-GFP) (Dictyostelium | not stated).
For assay [2], the target named is DdMyo7 long heavy meromyosin (lnHMM), FLAG-tagged (Dictyostelium). The experiment in a line: co-IP; lnHMM (FLAG) precipitated with anti-Flag beads from a MgATP-released, myosin-enriched cytoskeletal fraction of talA null cells; washed in Flag buffer (25 mM Hepes pH 7.4, 300 mM NaCl, 10 mM MgCl2 and 5 mM EGTA, or 2 mM CaCl2); eluted with Flag peptide; gel stained with Coomassie or Sypro Ruby, densitometry normalised to molecular weights; lower band identified by mass spectrometry.
DdMyo7 long heavy meromyosin (lnHMM), FLAG-tagged (Dictyostelium), sequence (Q9U1M8 686-725): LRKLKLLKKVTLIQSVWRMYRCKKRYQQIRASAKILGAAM

Assay [3] addresses DdMyo7 short heavy meromyosin forced-dimer GFP (shHMM-FD-GFP) (Dictyostelium | not stated). Nature of the assay: co-IP; as a2, but the resin washed in IP wash buffer + 2 mM CaCl2 (+Ca2+); immunoblot signal normalised for gel load and heavy chain abundance. (A western blot detects proteins with antibodies after separation by electrophoresis.)

The substance “Dictyostelium CaM-like protein CalB (natural protein)” returned a velocity of shHMM-FD on F-actin (TIRF motility assay) with 100 μM free Ca2+, against 40.7 nm/s without Ca2+ in assay [1] of 23.6 nm/s. Moreover, the stoichiometry N (as a rule, the number of molecules, sites or subunits per partner or assembly) in assay [2] is 2.01 CalB per HC. FLAG-CalB (natural protein): the reduction of immunoblot signal with Ca2+ in assay [3] was determined as 75.1%.

Source of the values: PMC12125552.
